The Human Domainome abundance scans (Beltran et al. 2025)
± gives the uncertainty stated by the source.

B1: POU domain, class 2, transcription factor 3, residues 186 to 260; numbered along this chain, Q9UKI9 (parent)
chain: SDLEELEKFAKTFKQRRIKLGFTQGDVGLAMGKLYGNDFSQTTISRFEALNLSFKNMCKLKPLLEKWLNDAESSP

Variants of: B1
Assay: abundance fitness (aPCA) (normalised: wild type 0, dead -1); higher = more abundant; growth selection in yeast, the domain comes from the species named
Conditions: Homo sapiens

Which abundance fitness does the source give for SDLEELEKFAKTFKQRRIKLGFTQGDVGLAMGKLYGNDFSQTTISRFEALNLHFKNMCKLKPLLEKWLNDAESSP here?
Its abundance fitness is -0.205 ± 0.094.

With SDLEELEKFAKTFKQRRIKLGFTQGDVGLAMGKLYGNDFSQTTISRFEALNLMFKNMCKLKPLLEKWLNDAESSP as the variant, how does the abundance fitness read?
The abundance fitness was -0.608 ± 0.081.

With SDLEELEKFAKTFKQRRIKLGFTQGDVGLAMGKLYGNDFSQTTISRFEALNLRFKNMCKLKPLLEKWLNDAESSP as the variant, how does the abundance fitness read?
The abundance fitness was -0.093 ± 0.031.

For SDLEELEKFAKTFKQRRIKLGFTQGDVGLAMGKLYGNDFSQTTISRFEALNLVFKNMCKLKPLLEKWLNDAESSP, which abundance fitness is on record?
The abundance fitness was -0.598 ± 0.043.

For SDLEELEKFAKTFKQRRIKLGFTQGDVGLAMGKLYGNDFSQTTISRFEALNLGFKNMCKLKPLLEKWLNDAESSP, which abundance fitness is on record?
Its abundance fitness is 0.015 ± 0.026.

For SDLEELEKFAKTFKQRRIKLGFTQGDVGLAMGKLYGNDFSQTTISRFEALNLPFKNMCKLKPLLEKWLNDAESSP, which abundance fitness is on record?
Its abundance fitness is -0.032 ± 0.052.

For SDLEELEKFAKTFKQRRIKLGFTQGDVGLAMGKLYGNDFSQTTISRFEALNLQFKNMCKLKPLLEKWLNDAESSP, which abundance fitness is on record?
Its abundance fitness is -0.077 ± 0.055.

For SDLEELEKFAKTFKQRRIKLGFTQGDVGLAMGKLYGNDFSQTTISRFEALNLWFKNMCKLKPLLEKWLNDAESSP, which abundance fitness is on record?
Its abundance fitness is -0.958 ± 0.099.

Which abundance fitness does the source give for SDLEELEKFAKTFKQRRIKLGFTQGDVGLAMGKLYGNDFSQTTISRFEALNLTFKNMCKLKPLLEKWLNDAESSP here?
Its abundance fitness is 0.002 ± 0.048.

Which abundance fitness does the source give for SDLEELEKFAKTFKQRRIKLGFTQGDVGLAMGKLYGNDFSQTTISRFEALNLLFKNMCKLKPLLEKWLNDAESSP here?
Its abundance fitness is -0.768 ± 0.066.

With SDLEELEKFAKTFKQRRIKLGFTQGDVGLAMGKLYGNDFSQTTISRFEALNLNFKNMCKLKPLLEKWLNDAESSP as the variant, how does the abundance fitness read?
The abundance fitness was 0.03 ± 0.062.

With SDLEELEKFAKTFKQRRIKLGFTQGDVGLAMGKLYGNDFSQTTISRFEALNLIFKNMCKLKPLLEKWLNDAESSP as the variant, how does the abundance fitness read?
Its abundance fitness is -0.556 ± 0.18.

With SDLEELEKFAKTFKQRRIKLGFTQGDVGLAMGKLYGNDFSQTTISRFEALNLFFKNMCKLKPLLEKWLNDAESSP as the variant, how does the abundance fitness read?
Its abundance fitness is -0.66 ± 0.24.

Which abundance fitness does the source give for SDLEELEKFAKTFKQRRIKLGFTQGDVGLAMGKLYGNDFSQTTISRFEALNLKFKNMCKLKPLLEKWLNDAESSP here?
Its abundance fitness is -0.091 ± 0.045.

Which abundance fitness does the source give for SDLEELEKFAKTFKQRRIKLGFTQGDVGLAMGKLYGNDFSQTTISRFEALNLSFKNCCKLKPLLEKWLNDAESSP here?
The abundance fitness was -0.166 ± 0.058.

For SDLEELEKFAKTFKQRRIKLGFTQGDVGLAMGKLYGNDFSQTTISRFEALNLSFKNDCKLKPLLEKWLNDAESSP, which abundance fitness is on record?
The abundance fitness was -0.451 ± 0.11.

Which abundance fitness does the source give for SDLEELEKFAKTFKQRRIKLGFTQGDVGLAMGKLYGNDFSQTTISRFEALNLSFKNACKLKPLLEKWLNDAESSP here?
Its abundance fitness is -0.024 ± 0.036.

For SDLEELEKFAKTFKQRRIKLGFTQGDVGLAMGKLYGNDFSQTTISRFEALNLSSKNMCKLKPLLEKWLNDAESSP, which abundance fitness is on record?
The abundance fitness was -0.059 ± 0.034.

Which abundance fitness does the source give for SDLEELEKFAKTFKQRRIKLGFTQGDVGLAMGKLYGNDFSQTTISRFEALNLSVKNMCKLKPLLEKWLNDAESSP here?
The abundance fitness was -0.012 ± 0.03.

Which abundance fitness does the source give for SDLEELEKFAKTFKQRRIKLGFTQGDVGLAMGKLYGNDFSQTTISRFEALNLSEKNMCKLKPLLEKWLNDAESSP here?
Its abundance fitness is 0.018 ± 0.038.

For SDLEELEKFAKTFKQRRIKLGFTQGDVGLAMGKLYGNDFSQTTISRFEALNLSHKNMCKLKPLLEKWLNDAESSP, which abundance fitness is on record?
Its abundance fitness is 0.033 ± 0.082.

With SDLEELEKFAKTFKQRRIKLGFTQGDVGLAMGKLYGNDFSQTTISRFEALNLSWKNMCKLKPLLEKWLNDAESSP as the variant, how does the abundance fitness read?
The abundance fitness was -0.024 ± 0.032.

Which abundance fitness does the source give for SDLEELEKFAKTFKQRRIKLGFTQGDVGLAMGKLYGNDFSQTTISRFEALNLSTKNMCKLKPLLEKWLNDAESSP here?
The abundance fitness was 0.013 ± 0.041.

Which abundance fitness does the source give for SDLEELEKFAKTFKQRRIKLGFTQGDVGLAMGKLYGNDFSQTTISRFEALNLSYKNMCKLKPLLEKWLNDAESSP here?
Its abundance fitness is 0.115 ± 0.058.

Which abundance fitness does the source give for SDLEELEKFAKTFKQRRIKLGFTQGDVGLAMGKLYGNDFSQTTISRFEALNLSDKNMCKLKPLLEKWLNDAESSP here?
Its abundance fitness is -0.063 ± 0.046.

For SDLEELEKFAKTFKQRRIKLGFTQGDVGLAMGKLYGNDFSQTTISRFEALNLSIKNMCKLKPLLEKWLNDAESSP, which abundance fitness is on record?
The abundance fitness was -0.006 ± 0.054.

With SDLEELEKFAKTFKQRRIKLGFTQGDVGLAMGKLYGNDFSQTTISRFEALNLSCKNMCKLKPLLEKWLNDAESSP as the variant, how does the abundance fitness read?
Its abundance fitness is -0.068 ± 0.046.

For SDLEELEKFAKTFKQRRIKLGFTQGDVGLAMGKLYGNDFSQTTISRFEALNLSAKNMCKLKPLLEKWLNDAESSP, which abundance fitness is on record?
Its abundance fitness is 0.013 ± 0.032.

Which abundance fitness does the source give for SDLEELEKFAKTFKQRRIKLGFTQGDVGLAMGKLYGNDFSQTTISRFEALNLSPKNMCKLKPLLEKWLNDAESSP here?
Its abundance fitness is -0.041 ± 0.042.

Which abundance fitness does the source give for SDLEELEKFAKTFKQRRIKLGFTQGDVGLAMGKLYGNDFSQTTISRFEALNLSRKNMCKLKPLLEKWLNDAESSP here?
Its abundance fitness is 0.024 ± 0.026.

With SDLEELEKFAKTFKQRRIKLGFTQGDVGLAMGKLYGNDFSQTTISRFEALNLSNKNMCKLKPLLEKWLNDAESSP as the variant, how does the abundance fitness read?
The abundance fitness was -0.037 ± 0.072.

Which abundance fitness does the source give for SDLEELEKFAKTFKQRRIKLGFTQGDVGLAMGKLYGNDFSQTTISRFEALNLSQKNMCKLKPLLEKWLNDAESSP here?
The abundance fitness was -0.025 ± 0.047.

For SDLEELEKFAKTFKQRRIKLGFTQGDVGLAMGKLYGNDFSQTTISRFEALNLSGKNMCKLKPLLEKWLNDAESSP, which abundance fitness is on record?
Its abundance fitness is -0.05 ± 0.026.

For SDLEELEKFAKTFKQRRIKLGFTQGDVGLAMGKLYGNDFSQTTISRFEALNLSKKNMCKLKPLLEKWLNDAESSP, which abundance fitness is on record?
The abundance fitness was 0.014 ± 0.043.

For SDLEELEKFAKTFKQRRIKLGFTQGDVGLAMGKLYGNDFSQTTISRFEALNLSLKNMCKLKPLLEKWLNDAESSP, which abundance fitness is on record?
The abundance fitness was -0.041 ± 0.033.

Which abundance fitness does the source give for SDLEELEKFAKTFKQRRIKLGFTQGDVGLAMGKLYGNDFSQTTISRFEALNLSMKNMCKLKPLLEKWLNDAESSP here?
The abundance fitness was 0.057 ± 0.049.
